Target: T1, propeptide (prosequence) of proteinase K from Tritirachium album Limber
T1 chain: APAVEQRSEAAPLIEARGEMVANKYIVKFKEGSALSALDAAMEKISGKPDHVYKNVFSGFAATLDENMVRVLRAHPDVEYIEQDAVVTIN

B1: mature recombinant proteinase K from Tritirachium album Limber (processed, natured from pro-proteinase K) (protein)
chain: AAQTNAPWGLARISSTSPGTSTYYYDESAGQGSCVYVIDTGIEASHPEFEGRAQMVKTYYYSSRDGNGHGTHCAGTVGSRTYGVAKKTQLFGVKVLDDNGSGQYSTIIAGMDFVASDKNNRNCPKGVVASLSLGGGYSSSVNSAAARLQSSGVMVAVAAGNNNADARNYSPASEPSVCTVGASDRYDRRSSFSNYGSVLDIFGPGTSILSTWIGGSTRSISGTSMATPHVAGLAAYLMTLGKTTAASACRYIADTANKGDLSNIPFGTVNLLAYNNYQA
proteinase K activity (chromogenic substrate test) of gel filtration fractions: no activity is found without prior activation

From patent US20070099283
